Test results taken from US20070087966A1.

Molecular target: rat PRL receptor (PRL-R) on trigeminal ganglia neurons (rat) (UniProt P05710)
Assay: cell-based or functional assay

Sequence of rat PRL receptor (PRL-R) on trigeminal ganglia neurons (rat) (P05710 20-610): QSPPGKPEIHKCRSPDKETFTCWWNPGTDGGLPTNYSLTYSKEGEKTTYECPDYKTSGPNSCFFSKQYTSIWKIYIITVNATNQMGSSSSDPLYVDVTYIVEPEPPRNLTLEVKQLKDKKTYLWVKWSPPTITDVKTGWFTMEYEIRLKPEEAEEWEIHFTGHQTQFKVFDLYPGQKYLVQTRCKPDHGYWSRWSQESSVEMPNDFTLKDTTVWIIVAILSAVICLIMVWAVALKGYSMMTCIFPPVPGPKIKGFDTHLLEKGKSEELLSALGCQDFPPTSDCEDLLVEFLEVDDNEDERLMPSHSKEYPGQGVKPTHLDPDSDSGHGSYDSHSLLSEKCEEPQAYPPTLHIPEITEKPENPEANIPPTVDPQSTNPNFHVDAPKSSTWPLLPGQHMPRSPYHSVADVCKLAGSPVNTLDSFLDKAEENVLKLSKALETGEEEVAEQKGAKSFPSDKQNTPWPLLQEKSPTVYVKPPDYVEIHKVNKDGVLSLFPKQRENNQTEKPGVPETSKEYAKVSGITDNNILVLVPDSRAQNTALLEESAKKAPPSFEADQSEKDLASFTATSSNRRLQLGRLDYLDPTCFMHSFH

| Substance | EC50 of sensitization of capsaicin-induced currents (Icap) in TG neurons from naive female rats | TRPV1 phosphorylation (32P incorporation) in TG neurons from intact female rats, PRL 40 nM for 10 min | capsaicin-evoked Ca2+ influx in TG neurons from intact female rats (PRL 40 nM, 10 min) | reduction of the PRL effect on Icap (G129R-PRL 16 nM with rPRL 4 nM) |
| --- | --- | --- | --- | --- |
| Ovine PRL [oPRL-21, BIO] (from UniProt P01240 31-229) (ligand) | 0.27 nM | 150% | 71% | – |
| G129R-hPRL (ligand) | – | – | – | 40% |
